Entries after “also recorded” stand apart in the source; their conditions may differ.
Key:
[1] = Fab Tm by dynamic scanning fluorimetry (DSF); assay type: physicochemical; details: optimized antibodies
Experimental: 10 μL of 20× Sypro Orange is added to 20 μL of 0.2-1 mg/mL mAb or Fab solution. A RT-PCR instrument (BioRad CFX96 RT PCR) is used to ramp the sample plate temperature from 40 to 95° C. at 0.5° C. increment, with 2 min equilibrate at each temperature. The negative of first derivative for the raw data is used to extract Tm.

SEC-HPLC % monomer = assay type: physicochemical; details: optimized antibodies
Experimental: A TSKgel SuperSW mAb HTP column (22855) was used for fast SEC analysis of mammalian produced mAbs at 0.4 mL/min with a cycle time of 6 min/run. 200 mM Sodium Phosphate and 250 mM Sodium Chloride was used as the mobile phase.

[2] = molecular target: T1, recombinant human IL18-BP (Homo sapiens, UniProt O95998); assay: CMV recall assay; assay type: cell-based
T1 construct: purchased R&D systems 119-BP
T1 sequence (O95998 31-194): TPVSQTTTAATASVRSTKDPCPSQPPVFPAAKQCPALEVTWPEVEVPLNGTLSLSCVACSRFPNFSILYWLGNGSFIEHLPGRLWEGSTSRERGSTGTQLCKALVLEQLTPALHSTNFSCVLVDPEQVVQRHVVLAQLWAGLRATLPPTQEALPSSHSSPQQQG
Experimental: Human MEL-624 overexpressing PD-L1 cells were thawed and loaded with CMV pp65 peptide (0.03 μg/ml). The cells were seeded at 100K/well in a 96 well plate and incubated for 30 minutes in 37° C., 5% C02 incubator with a combination rhIL-18 (30 ng/ml, R&D systems, 9124-IL/CF) and rhIL-18BP-Fc chimeric protein (2 μg/ml, R&D systems 119-BP) to allow IL-18+IL-18BP complex formation. After 30 minutes, anti-human IL-18BP (ADI-71722), anti-human PVRIG, anti-human TIGIT (anti-TIGIT), anti-human PD1 (Pembrolizumab) or relevant isotype control (hIgG4) were added to the culture to examine their capability to restore IL-18 activity. All antibodies were added to a final concentration of 10 μg/ml. 30 minutes post incubation with antibodies, thawed CMV-reactive T-cells were added to the culture. Cells and all added solutions were prepared in full IMDM (IMDM media with 10% human serum, 1% Glutamax, 1% MEM eagle, 1% sodium pyruvate, and 1% Penicillin-Streptomycin Solution) to a final volume of 200 μl/well. Plates were incubated for 24 hours in 37° C., 5% C02 incubator, after which the supernatant was collected for IFNγ secretion evaluation. All tests were done in triplicates and each repeated with three donors.
MEL624 cells that overexpress PD-L1 were loaded with CMV peptide pp65. […] CMV-specific T-cells were then added to the culture and IFNg secretion was measured after an overnight incubation.

[3] = tested on: MEL624 cells co-cultured with human TILs; assay: Killing of MEL624 melanoma cells by human TILs (IncuCyte); assay type: cell-based; details: 10 μg/ml; rhIL-18 50 ng/ml + rhIL-18BP 1 μg/ml; 72 hours
Experimental: The co-culture was monitored for 72 hours using an IncuCyte live cell imaging instrument. […] In the presence of the isotype control antibody (black), IL-18BP abrogated the effects of IL-18, while the anti-IL-18BP antibody (turquoise) was able to completely restore these effects.

[4] = tested on: human TDCs with endogenous IL18 and IL18BP; assay: Ex vivo culture of human tumor dissociated cells (TDCs); assay type: cell-based
Experimental: Resected tumor specimens were cut into 1 mm pieces using scalpel and transferred into enzymatic digestion mix (Tumor Dissociation kit, Miltenyi, 130-095-929). Dissociation was done according to the manufacturer's instructions using gentle MACS Dissociator (Miltenyi Biotec). Dissociation time lasted 1 h under mechanical rotation and heating. Samples were centrifuged for 3 min at 300 g, pellet was resuspended in RPMI, passed through a MACS SmartStrainer (70 μm), and centrifuged for 7 min at 300 g. Cells were resuspended with RBC for 3 min, washed with RPMI 1640, transferred through 40 μm filter and centrifuged for 7 min at 300 g. Finally, cells were resuspended in PBS, stained with Trypan blue and counted. Samples were then stained for flow cytometric analyses or resuspended in fetal bovine serum containing 10% of dimethyl sulfoxide for storage in liquid nitrogen.
Human TDC samples were seeded at 0.1×10^6 of CD45+ cells per well in 96-well plate, pre-coated with anti-CD3 and anti-CD28 antibodies (10 μg/ml both). Complete medium, [RPMI 1640 (BI, Cat. #01-110-1A) supplemented with 10% human AB serum (Sigma, Cat. #H3667), 1% Penicillin/Streptomycin (BI, Cat. #03-031-1B), 1% 1-glutamine (Life Technologies, Cat. #35050-038) and 1% of sodium pyruvate (BI, Cat. #03-042-1B)] was used. […]

B1: ADI-71739: anti-IL18-BP antibody, sequences in FIG. 2K; 66716 lineage (antibody, V domains shown)
VH: QLQLQESGPGLVKPSETLSLTCTVSGGSISSPDYPWGWIRQPPGKGLEWIGSIYYQGATYYNPSLKSRVTISVDTSKNQFSLKLSSVTAADTAVYYCARGPYRQLFDYWGQGTLVTVSS
VL: DIQMTQSPSSVSASVGDRVTITCRASQGISSWLAWYQQKPGKAPKLLIYAASSLQSGVPSRFSGSGSGTDFTLTISSLQPEDFATYYCQQGSVFPYTFGGGTKVEIK
With B1 the “Fab Tm (DSF, ° C.)” value [1] was 73.0 °C, the “SEC-HPLC, % monomer” value (SEC-HPLC % monomer) was 94.9% and the “IFNγ secretion by CMV-reactive T-cells, as mono” value ([2]; 10 μg/ml, rhIL-18 30 ng/ml + rhIL-18BP 2 μg/ml) was “increase IFNγ secretion from CMV-reactive T-cells; also recorded: increase IFNγ secretion by the T cells”. The “IFNγ secretion by CMV-reactive T-cells, in combination” value ([2]; combined with Pembrolizumab, anti-PVRIG or anti-TIGIT, each 10 μg/ml, vs mono) was “in a more potent manner; also recorded: augmented”, the “Killing of melanoma cells by tumor infiltrating lymphocytes” value [3] was “increased killing of melanoma cells” and the “Cytokine and Granzyme B secretion by TDCs, vs media” value ([4]; 10 μg/ml, anti-CD3/anti-CD28 stimulation, human ovarian TDC sample) was “enhanced TNFa, IFNg, IL2 and Granzyme B secretion”. For the same molecule, the “Cytokine and Granzyme B secretion by TDCs, combination with pembrolizumab vs Pembro alone” value ([4]; each 10 μg/ml) was “further increased TNFa, IFNg, and Granzyme B secretion”.
